Here are results for 23 molecules from US20180339017A1 (Merck Sharp & Dohme, published 2018).

Starred links: 1 amine or outer side, 2 acyl side, 3 side chain; linkers in the order of their positions; H or OH if unused. Non-standard residues stand in square brackets, D forms with d. Groups on a side chain read outwards from the residue. No end group written: not given here. *: point of attachment. γGlu = O=C(O)[C@H](CCC(=O)[*:2])N[*:1]; Palmitoyl = CCCCCCCCCCCCCCCC(=O)*

The chains are these.
B1: TP536 (peptide)
peptide: H[dS]QGTFLSDK([γGlu-γGlu-Palmitoyl])SKLLDSRRAQDFVQWLMQT-NH2
modifications: N-terminus assumed
SMILES: CCCCCCCCCCCCCCCC(=O)N[C@@H](CCC(=O)N[C@@H](CCC(=O)NCCCC[C@H](NC(=O)[C@H](CC(=O)O)NC(=O)[C@H](CO)NC(=O)[C@H](CC(C)C)NC(=O)[C@H](Cc1ccccc1)NC(=O)[C@@H](NC(=O)CNC(=O)[C@H](CCC(N)=O)NC(=O)[C@@H](CO)NC(=O)[C@@H](N)Cc1c[nH]cn1)[C@@H](C)O)C(=O)N[C@@H](CO)C(=O)N[C@@H](CCCCN)C(=O)N[C@@H](CC(C)C)C(=O)N[C@@H](CC(C)C)C(=O)N[C@@H](CC(=O)O)C(=O)N[C@@H](CO)C(=O)N[C@@H](CCCNC(=N)N)C(=O)N[C@@H](CCCNC(=N)N)C(=O)N[C@@H](C)C(=O)N[C@@H](CCC(N)=O)C(=O)N[C@@H](CC(=O)O)C(=O)N[C@@H](Cc1ccccc1)C(=O)N[C@H](C(=O)N[C@@H](CCC(N)=O)C(=O)N[C@@H](Cc1c[nH]c2ccccc12)C(=O)N[C@@H](CC(C)C)C(=O)N[C@@H](CCSC)C(=O)N[C@@H](CCC(N)=O)C(=O)N[C@H](C(N)=O)[C@@H](C)O)C(C)C)C(=O)O)C(=O)O
B2: TP535 (peptide)
peptide: H[dS]QGTFTSDK([γGlu-γGlu-Palmitoyl])SKYLDSRRAHDFVQWLLNT-NH2
modifications: N-terminus assumed
SMILES: CCCCCCCCCCCCCCCC(=O)N[C@@H](CCC(=O)N[C@@H](CCC(=O)NCCCC[C@H](NC(=O)[C@H](CC(=O)O)NC(=O)[C@H](CO)NC(=O)[C@@H](NC(=O)[C@H](Cc1ccccc1)NC(=O)[C@@H](NC(=O)CNC(=O)[C@H](CCC(N)=O)NC(=O)[C@@H](CO)NC(=O)[C@@H](N)Cc1c[nH]cn1)[C@@H](C)O)[C@@H](C)O)C(=O)N[C@@H](CO)C(=O)N[C@@H](CCCCN)C(=O)N[C@@H](Cc1ccc(O)cc1)C(=O)N[C@@H](CC(C)C)C(=O)N[C@@H](CC(=O)O)C(=O)N[C@@H](CO)C(=O)N[C@@H](CCCNC(=N)N)C(=O)N[C@@H](CCCNC(=N)N)C(=O)N[C@@H](C)C(=O)N[C@@H](Cc1c[nH]cn1)C(=O)N[C@@H](CC(=O)O)C(=O)N[C@@H](Cc1ccccc1)C(=O)N[C@H](C(=O)N[C@@H](CCC(N)=O)C(=O)N[C@@H](Cc1c[nH]c2ccccc12)C(=O)N[C@@H](CC(C)C)C(=O)N[C@@H](CC(C)C)C(=O)N[C@@H](CC(N)=O)C(=O)N[C@H](C(N)=O)[C@@H](C)O)C(C)C)C(=O)O)C(=O)O
B3: TP552 (peptide)
peptide: H[dS]QGTFLSDYSKLLDSRAAQDFVQWLLQT-NH2
modifications: N-terminus assumed
SMILES: CC(C)C[C@H](NC(=O)[C@H](CC(C)C)NC(=O)[C@H](CCCCN)NC(=O)[C@H](CO)NC(=O)[C@H](Cc1ccc(O)cc1)NC(=O)[C@H](CC(=O)O)NC(=O)[C@H](CO)NC(=O)[C@H](CC(C)C)NC(=O)[C@H](Cc1ccccc1)NC(=O)[C@@H](NC(=O)CNC(=O)[C@H](CCC(N)=O)NC(=O)[C@@H](CO)NC(=O)[C@@H](N)Cc1c[nH]cn1)[C@@H](C)O)C(=O)N[C@@H](CC(=O)O)C(=O)N[C@@H](CO)C(=O)N[C@@H](CCCNC(=N)N)C(=O)N[C@@H](C)C(=O)N[C@@H](C)C(=O)N[C@@H](CCC(N)=O)C(=O)N[C@@H](CC(=O)O)C(=O)N[C@@H](Cc1ccccc1)C(=O)N[C@H](C(=O)N[C@@H](CCC(N)=O)C(=O)N[C@@H](Cc1c[nH]c2ccccc12)C(=O)N[C@@H](CC(C)C)C(=O)N[C@@H](CC(C)C)C(=O)N[C@@H](CCC(N)=O)C(=O)N[C@H](C(N)=O)[C@@H](C)O)C(C)C
B4: TP559 (peptide)
peptide: H[dS]QGTFTSDK([γGlu-γGlu-Palmitoyl])SKYLDARAAHDFVQWLLNT-NH2
modifications: N-terminus assumed
SMILES: CCCCCCCCCCCCCCCC(=O)N[C@@H](CCC(=O)N[C@@H](CCC(=O)NCCCC[C@H](NC(=O)[C@H](CC(=O)O)NC(=O)[C@H](CO)NC(=O)[C@@H](NC(=O)[C@H](Cc1ccccc1)NC(=O)[C@@H](NC(=O)CNC(=O)[C@H](CCC(N)=O)NC(=O)[C@@H](CO)NC(=O)[C@@H](N)Cc1c[nH]cn1)[C@@H](C)O)[C@@H](C)O)C(=O)N[C@@H](CO)C(=O)N[C@@H](CCCCN)C(=O)N[C@@H](Cc1ccc(O)cc1)C(=O)N[C@@H](CC(C)C)C(=O)N[C@@H](CC(=O)O)C(=O)N[C@@H](C)C(=O)N[C@@H](CCCNC(=N)N)C(=O)N[C@@H](C)C(=O)N[C@@H](C)C(=O)N[C@@H](Cc1c[nH]cn1)C(=O)N[C@@H](CC(=O)O)C(=O)N[C@@H](Cc1ccccc1)C(=O)N[C@H](C(=O)N[C@@H](CCC(N)=O)C(=O)N[C@@H](Cc1c[nH]c2ccccc12)C(=O)N[C@@H](CC(C)C)C(=O)N[C@@H](CC(C)C)C(=O)N[C@@H](CC(N)=O)C(=O)N[C@H](C(N)=O)[C@@H](C)O)C(C)C)C(=O)O)C(=O)O

T2 sequence (P47871 26-477): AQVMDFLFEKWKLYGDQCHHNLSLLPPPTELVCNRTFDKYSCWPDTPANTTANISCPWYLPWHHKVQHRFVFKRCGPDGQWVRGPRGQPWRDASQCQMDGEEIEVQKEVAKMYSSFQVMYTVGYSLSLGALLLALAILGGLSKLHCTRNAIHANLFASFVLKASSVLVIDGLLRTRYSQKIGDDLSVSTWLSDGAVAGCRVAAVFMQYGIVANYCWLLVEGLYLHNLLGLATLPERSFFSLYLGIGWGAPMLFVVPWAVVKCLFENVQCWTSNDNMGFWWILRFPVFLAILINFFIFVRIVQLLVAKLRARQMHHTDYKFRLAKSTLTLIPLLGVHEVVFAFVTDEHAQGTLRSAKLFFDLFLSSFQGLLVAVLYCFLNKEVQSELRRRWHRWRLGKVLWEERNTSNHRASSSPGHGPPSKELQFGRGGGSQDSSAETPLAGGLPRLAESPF

The target in one assay is T1, human GLP-1 receptor (human, UniProt P43220 24-463). Description: cell-based or functional assay.
Regarding HSQGTFTSDYSKYLDSKRAHDFVQWLLNT-NH2 [PD45], the “EC50 hGLP1R (cAMP activity assay)” value stood at 0.02 nM.

Regarding HSQGTFTSDYSKYLDSRRAQDFVQWLINY-NH2 [PD31], the “EC50 hGLP1R (cAMP activity assay)” value was 0.04 nM.

For HSQGTFFSDYSKYLDSRRAQDFVQWLLET-NH2 [PD58], the “EC50 hGLP1R (cAMP activity assay)” value worked out at 0.02 nM.

As to HSQGIFFSDYSKYLDSRRAQDFVQWLMNT-NH2 [PD52], the “EC50 hGLP1R (cAMP activity assay)” value came to 0.02 nM.

HSQGTFTSDYSKYLDARRAQDFVQWLIRT-NH2 [PD25]: the “EC50 hGLP1R (cAMP activity assay)” value came to 0.02 nM.

For the molecule HSQGTFTSDYSKYLDSRRAQDFVDWLINS-NH2 [PD50], the “EC50 hGLP1R (cAMP activity assay)” value was determined as 0.01 nM.

For the molecule HSHGTFTSDYSKYLDSRRAQDFVQWLMTT-NH2 [PD51], the “EC50 hGLP1R (cAMP activity assay)” value stood at 0.02 nM.

As for HSQGTFFSDYSHWLDSRRAQDFVQWLMNT-NH2 [PD43], the “EC50 hGLP1R (cAMP activity assay)” value worked out at 0.04 nM.

For the molecule HSQGTFTSDYSKYLDSRRAQDFVDWLLNA-NH2 [PD48], the “EC50 hGLP1R (cAMP activity assay)” value came out at 0.02 nM.

For HSQGTFTSDYSKYLDSLMAQDFVQWLMST-NH2 [PD22], the “EC50 hGLP1R (cAMP activity assay)” value stood at 0.03 nM.

HSQGTFTSDYSKYLDWRRAQDFVQWLLNT-NH2 [PD23]: the “EC50 hGLP1R (cAMP activity assay)” value amounted to 0.05 nM.

As for HSQGTFTSDYSKYLDWRRAQDFVQWLQNT-NH2 [PD44], the “EC50 hGLP1R (cAMP activity assay)” value amounted to 0.01 nM.

HSQGTFTSDYSKYLDSRMAYDFVQWLMNT-NH2 [PD56]: the “EC50 hGLP1R (cAMP activity assay)” value was determined as 0.05 nM.

On to HSQGTFTSDYSKYLDSIRAQDFVQWLMDT-NH2 [PD36], for which the “EC50 hGLP1R (cAMP activity assay)” value amounted to 0.06 nM.

Regarding HSQGTFTSDYSKYLDSRRAQDFVQWLLDS-NH2 [PD59], the “EC50 hGLP1R (cAMP activity assay)” value stood at 0.01 nM.

In the case of HSQGTFTSDYSKYLDSRRAQDFVQWLLNQ-NH2 [PD57], the “EC50 hGLP1R (cAMP activity assay)” value was found to be 0.01 nM.

For HSQGTFTSDYSKYLDMQRAHDFVQWLMNT-NH2 [PD55], the “EC50 hGLP1R (cAMP activity assay)” value worked out at 0.01 nM.

For the molecule HSQGTFTSDYSKYLDELRAYDFVQWLMNT-NH2 [PD27], the “EC50 hGLP1R (cAMP activity assay)” value worked out at 0.03 nM.

A further assay addresses T2, human glucagon receptor (human, UniProt P47871 26-477). Description: cell-based or functional assay.
Regarding HSQGTFTSDYSKYLDSKRAHDFVQWLLNT-NH2 [PD45], the “EC50 hGCGR (cAMP activity assay)” value turned out to be 0.03 nM.

HSQGTFTSDYSKYLDSRRAQDFVQWLINY-NH2 [PD31]: the “EC50 hGCGR (cAMP activity assay)” value was found to be 0.06 nM.

For the molecule HSQGTFFSDYSKYLDSRRAQDFVQWLLET-NH2 [PD58], the “EC50 hGCGR (cAMP activity assay)” value came to 0.03 nM.

As for HSQGIFFSDYSKYLDSRRAQDFVQWLMNT-NH2 [PD52], the “EC50 hGCGR (cAMP activity assay)” value is 0.03 nM.

Take HSQGTFTSDYSKYLDARRAQDFVQWLIRT-NH2 [PD25]: the “EC50 hGCGR (cAMP activity assay)” value stood at 0.04 nM.

On to HSQGTFTSDYSKYLDSRRAQDFVDWLINS-NH2 [PD50], for which the “EC50 hGCGR (cAMP activity assay)” value came out at 0.02 nM.

With HSHGTFTSDYSKYLDSRRAQDFVQWLMTT-NH2 [PD51], the “EC50 hGCGR (cAMP activity assay)” value is 0.03 nM.

For HSQGTFFSDYSHWLDSRRAQDFVQWLMNT-NH2 [PD43], the “EC50 hGCGR (cAMP activity assay)” value was found to be 0.03 nM.

In the case of HSQGTFTSDYSKYLDSRRAQDFVDWLLNA-NH2 [PD48], the “EC50 hGCGR (cAMP activity assay)” value was 0.07 nM.

On to HSQGTFTSDYSKYLDSLMAQDFVQWLMST-NH2 [PD22], for which the “EC50 hGCGR (cAMP activity assay)” value was 0.02 nM.

Regarding HSQGTFTSDYSKYLDWRRAQDFVQWLLNT-NH2 [PD23], the “EC50 hGCGR (cAMP activity assay)” value worked out at 0.03 nM.

As to HSQGTFTSDYSKYLDWRRAQDFVQWLQNT-NH2 [PD44], the “EC50 hGCGR (cAMP activity assay)” value amounted to 0.02 nM.

For the molecule HSQGTFTSDYSKYLDSRMAYDFVQWLMNT-NH2 [PD56], the “EC50 hGCGR (cAMP activity assay)” value turned out to be 0.08 nM.

For the molecule HSQGTFTSDYSKYLDSIRAQDFVQWLMDT-NH2 [PD36], the “EC50 hGCGR (cAMP activity assay)” value worked out at 0.04 nM.

On to HSQGTFTSDYSKYLDSRRAQDFVQWLLDS-NH2 [PD59], for which the “EC50 hGCGR (cAMP activity assay)” value was found to be 0.02 nM.

Consider HSQGTFTSDYSKYLDSRRAQDFVQWLLNQ-NH2 [PD57], for which the “EC50 hGCGR (cAMP activity assay)” value came out at 0.02 nM.

In the case of HSQGTFTSDYSKYLDMQRAHDFVQWLMNT-NH2 [PD55], the “EC50 hGCGR (cAMP activity assay)” value is 0.01 nM.

On to HSQGTFTSDYSKYLDELRAYDFVQWLMNT-NH2 [PD27], for which the “EC50 hGCGR (cAMP activity assay)” value stood at 0.05 nM.

Another assay deals with T1, human GLP-1 receptor. Description: cell-based or functional assay. The source holds these as a separate data set.
As for B1, the “EC50 hGLP1 (cAMP activity assay)” value amounted to 5 nM.

Take B2: the “EC50 hGLP1 (cAMP activity assay)” value turned out to be 0.05 nM.

B3: the “EC50 hGLP1 (cAMP activity assay)” value was found to be 5 nM.

Turning to HSQGTFTSDYSKYLDNKRAQDFVQWLMQT-NH2 [PD37], the “EC50 hGLP1 (cAMP activity assay)” value was 0.05 nM.

Regarding B4, the “EC50 hGLP1 (cAMP activity assay)” value is 0.05 nM.

The next assay concerns the target T2, human glucagon receptor. Description: cell-based or functional assay. This is another data set of the same source.
As for B1, the “EC50 hGCGR (cAMP activity assay)” value was determined as 0.04 nM.

Turning to B2, the “EC50 hGCGR (cAMP activity assay)” value was 0.02 nM.

For B3, the “EC50 hGCGR (cAMP activity assay)” value stood at 0.02 nM.

On to HSQGTFTSDYSKYLDNKRAQDFVQWLMQT-NH2 [PD37], for which the “EC50 hGCGR (cAMP activity assay)” value was determined as 0.16 nM.

As to B4, the “EC50 hGCGR (cAMP activity assay)” value came out at 0.02 nM.
